Experimental data: publication PMC3923860

Legend:
histone H1o (H1) (human) = assay: EMSA; conditions: no competitor DNA, EMSA: 50 mM NaCl, 25 mM Tris-HCl pH 7.5, 1 mM EDTA, 1 mM DTT, 100 ug/ml acetylated BSA, 3% glycerol, 30 min on ice
[1] = test system: oxidized HMGB1 (Cys23-Cys45 disulfide) (rat (sequence identical to human)); assay: EMSA; conditions: EMSA: 50 mM NaCl, 25 mM Tris-HCl pH 7.5, 1 mM EDTA, 1 mM DTT, 100 ug/ml acetylated BSA, 3% glycerol, 30 min on ice
[2] = test system: reduced HMGB1 (all-thiol) (rat (sequence identical to human)); assay: EMSA; conditions: EMSA: 50 mM NaCl, 25 mM Tris-HCl pH 7.5, 1 mM EDTA, 1 mM DTT, 100 ug/ml acetylated BSA, 3% glycerol, 30 min on ice
[3] = test system: oxidized HMGB1 (Cys23-Cys45 disulfide) (rat (sequence identical to human)); assay: ligase-mediated circularization; conditions: bending, EMSA: 50 mM NaCl, 25 mM Tris-HCl pH 7.5, 1 mM EDTA, 1 mM DTT, 100 ug/ml acetylated BSA, 3% glycerol, 30 min on ice, gels 0.5x TBE, 4 C
[4] = covalently closed circle, gels 0.5x TBE …

hemicatenated DNA loops (hcDNA)
Kd (histone H1o (H1) (human); gels 0.5x TBE, 4 C): 6 nM | Kd ([1]; gels 0.5x TBE, 4 C): < 0.01 nM | binding signal (fold lower affinity than reduced (up to)) ([1]; oxidized, gels 0.5x TBE, 4 C): 10 | Kd ([2]; gels 0.5x TBE, 4 C): < 0.01 nM

66-bp DNA minicircle
Kd (histone H1o (H1) (human); [4]): 5 nM | Kd ([1]; oxidized, covalently closed circle, gels 0.5x TBE …): 0.25 nM | Kd [2, 4]: < 0.1 nM

123-bp DNA duplex
binding signal (% of minicircles with reduced HMGB1) [3]: < 20
